Measurements reported in US20080098491A1, “MOUSE MODELS TO STUDY CACHEXIA” (ZOLTAN LABORATORIES LLC, priority 2006, published 2008).

What was measured:
[1] = system: MXT mouse mammary tumor; assay: Cisplatin-treated MXT mouse mammary tumor model, purified PALP, AT, holo-TF, apo-TF (Example 9, Experiment 2); format: in vivo; conditions: 12-mg/kg s.c. with cisplatin 3-mg/kg i.p.
From the text: (§1) The B16 mouse melanoma and MXT mouse mammary tumors were developed in first generation hybrid BDF1 (C57 B1 female×DBA/2 male) adult female mice kept at specified pathogen free (SPF) hygienic level. These models were chosen for these experiments because these mice have the complete immune system, and both tumors grow very rapidly. To develop the tumors, B16 and MXT tumor tissue fragments of about 0.1-cm^3 were surgically implanted subcutaneously into the intrascapular region to develop the tumors. Each tumor fragment contained about 1-1.5×10^6 cells. The animals were kept in macrolon cages on ventilated rack at 22-24° C. (50-60% humidity) with lighting regimen of 12/12 h light/dark. The animals had free access to tap water and were fed with sterilized standard diet (Charles River VRF1, Germany) ad libitum. The animals were taken care of according to the “Guiding Principle for the care and use of Animals” based upon the Helsinki declaration and they were approved by the local ethical committee.
(§2) In case of both tumor models the tumor size was usually in the range of 0.2 to 0.5-g when treatments started 7-11 days after tumor implantation; the mice were selected so that in the same treatment group the difference in tumor size was no greater than 0.1 gram. In some experiments, the test proteins were suspended in physiological saline and injected in 50-μl volume subcutaneously in the vicinity of tumor (within 1-cm of tumor margin). In other experiments, the test proteins were dispersed in Vaselinum cholesteratum and used topically; 150-mg cream was applied on the tumor and the vicinity of tumor area (with about 0.5-cm of the tumor margin). The tumor volume was determined by using calipers; this technique is well known to one having ordinary skill in the art. Tumor volume was calculated according to the generally accepted formula: V=a^2×b×7r/6, where “a” and “b” mean the shortest and longest diameter, respectively, of the measured tumor.
Experiment 2. The commercial PALP used in this model for Exp. 1 was composed of PALP (˜10%), TF (˜12%), AT (˜30%), albumin (˜35%) and the degradation products of TF (˜13%). […] In this experiment, it was determined whether the other two major proteins, i.e. TF and AT, present in the commercial PALP preparation in addition to PALP, also influence cisplatin-induced loss of body weight or not. The mouse MXT mammary tumor was developed as described in Example 3. In the first group, animals remained untreated during the whole observation period. In the second group, starting on the 7th day after tumor implantation, mice were administered 3-mg per 1-kg of cisplatin i.p. 6-times every second day. In the third group, starting on the 7th day after tumor implantation, mice were simultaneously administered 3-mg per 1-kg of cisplatin i.p. and 12-mg per 1-kg of purified PALP s.c. In the fourth group, starting on the 7th day after tumor implantation, mice were simultaneously administered 3-mg per 1-kg of cisplatin i.p. and 12-mg per 1-kg of highly purified AT s.c. In the fifth group, starting on the 7th day after tumor implantation, mice were simultaneously administered 3-mg per 1-kg of cisplatin i.p. and 12-mg per 1-kg of commercial holo-TF (h-TF, T 0665 in the Sigma catalog) s.c. In the sixth group, starting on the 7th day after tumor implantation, mice were simultaneously administered 3-mg per 1-kg of cisplatin i.p. and 12-mg per 1-kg of commercial apo-TF (a-TF, T 2036 in the Sigma catalog) s.c. Holo-TF contained 1,100-1,600 μg iron per gram protein while apo-TF was essentially iron-free. Each treatment with the proteins was also performed 6-times on every second day simultaneously with the cisplatin treatment. Each group included 7 animals. The mean values for total weight, tumor weight and body weight (the difference between total and tumor weight) are shown in gram in TABLE 7.

[2] = system: fibroblast proliferation; conditions: in vitro; cited from earlier work
[3] = system: B16 mouse melanoma; assay: B16 mouse melanoma model, s.c. highly purified PALP (Example 4, Experiment 1); format: in vivo; conditions: highly purified PALP 14-mg/kg s.c.
From the text: The B16 mouse melanoma and MXT mouse mammary tumors were developed in first generation hybrid BDF1 (C57 B1 female×DBA/2 male) adult female mice kept at specified pathogen free (SPF) hygienic level. These models were chosen for these experiments because these mice have the complete immune system, and both tumors grow very rapidly. To develop the tumors, B16 and MXT tumor tissue fragments of about 0.1-cm^3 were surgically implanted subcutaneously into the intrascapular region to develop the tumors. Each tumor fragment contained about 1-1.5×10^6 cells. The animals were kept in macrolon cages on ventilated rack at 22-24° C. (50-60% humidity) with lighting regimen of 12/12 h light/dark. The animals had free access to tap water and were fed with sterilized standard diet (Charles River VRF1, Germany) ad libitum. […]
In case of both tumor models the tumor size was usually in the range of 0.2 to 0.5-g when treatments started 7-11 days after tumor implantation; the mice were selected so that in the same treatment group the difference in tumor size was no greater than 0.1 gram. […] The tumor volume was determined by using calipers; this technique is well known to one having ordinary skill in the art. Tumor volume was calculated according to the generally accepted formula: V=a^2×b×7r/6, where “a” and “b” mean the shortest and longest diameter, respectively, of the measured tumor. […]

[4] = system: mouse MXT tumor; conditions: cisplatin treated; cited from earlier work
[5] = system: human HT 168 melanoma; conditions: total weight includes tumor weight; cited from earlier work
[6] = system: B16 mouse melanoma; conditions: cited from earlier work
[7] = system: MXT mouse mammary tumor; assay: Cisplatin-treated MXT mouse mammary tumor model, PALP and TF (Example 9, Experiment 1); format: in vivo; conditions: co-treated with cisplatin 3-mg/kg i.p.
From the text: as §1, §2
Experiment 1. The mouse MXT mammary tumor was developed as described in Example 3. In the first group, animals remained untreated during the whole observation period. In the second group, starting on the 7th day after tumor implantation, mice were intraperitoneally (i.p.) administered 3-mg per 1-kg total weight of cisplatin 7-times every second day. In the third group, starting on the 7th day after tumor implantation, mice were simultaneously administered 3-mg per 1-kg of cisplatin i.p. and 16-mg per 1-kg of purified PALP s.c. In the fourth group, starting on the 7th day after tumor implantation, mice were simultaneously administered 3-mg per 1-kg of cisplatin i.p. and 60-mg per 1-kg of commercial PALP s.c. In the fifth group, starting on the 7th day after tumor implantation, mice were simultaneously administered 3-mg per 1-kg of cisplatin i.p. and 14-mg per 1-kg of commercial TF (T 3309 in the Sigma catalog) s.c. Each treatment was performed 7-times on every second day. Each group included 7 animals. The mean values for total weight, tumor weight and body weight (the difference between total and tumor weight) are shown in TABLE 6.

Molecule	Effect on cisplatin-induced body weight loss [1]	Effect of pre-heating on the stimulatory effect on fibroblast proliferation [2]	Effect on loss of body weight [3]	Effect on tumor size [3]	Effect on total weight loss [4]	Effect on tumor induced loss of total weight [5]	Effect on tumor growth ([6]; administered subcutaneously or topically)	Effect on the action of CCDTHT on tumor growth ([6]; mouse, in vivo)	Effect on body weight loss induced by the tumor and cisplatin [7]
AT: human α1-antitrypsin purified to homogeneity from commercial PALP	partially reversed cisplatin-induced body weight loss	enhanced by pre-heating it at 65-75 °C for 30 min or at 41 °C for 21 hours							
highly purified PALP: human placental alkaline phosphatase purified to homogeneity from commercial PALP; printed as 'PALP' in Tables 1, 7, 8 (protein, UniProt P05187 23-506, looked up) Alkaline phosphatase, …: IIPVEEENPDFWNREAAEALGAAKKLQPAQTAAKNLIIFLGDGMGVSTVTAARILKGQKKDKLGPEIPLAMDRFPYVALSKTYNVDKHVPDSGATATAYLCGVKGNFQTIGLSAAARFNQCNTTRGNEVISVMNRAKKAGKSVGVVTTTRVQHASPAGTYAHTVNRNWYSDADVPASARQEGCQDIATQLISNMDIDVILGGGRKYMFRMGTPDPEYPDDYSQGGTRLDGKNLVQEWLAKRQGARYVWNRTELMQASLDPSVTHLMGLFEPGDMKYEIHRDSTLDPSLMEMTEAALRLLSRNPRGFFLFVEGGRIDHGHHESRAYRALTETIMFDDAIERAGQLTSEEDTLSLVTADHSHVFSFGGYPLRGSSIFGLAPGKARDRKAYTVLLYGNGPGYVLKDGARPDVTESESGSPEYRQQSAVPLDEETHAGEDVAVFARGPQAHLVHGVQEQTFIAHVMAFAACLEPYTACDLAPPAGTTD			reversed loss of body weight	no major effects on the tumor size	reduce total weight loss	reduces tumor induced loss of total weight	reduced tumor growth	enhance the effect of CCDTHT	not only prevented the loss but significantly enhanced body weight
